Test results: paper PMC5750209, “Structural basis for DNA 3′-end processing by human tyrosyl-DNA phosphodiesterase 1”

What was measured:
Tdp1(Δ148) [1] = target: T1, Tdp1(Δ148) (Homo sapiens, UniProt Q9NUW8 149-608); assay: X-ray crystal structure (2.04 Å); 3'-phosphorylated product complex; Cross-linking: 10 mM Tris-HCl pH 7.5, 100 mM KCl, 5 µM each, 15 min room temperature then 15 min on ice, UV 312 nm 30 min on ice. Crystal complex: 50 mM HEPES pH 7.8, 50 mM NaCl, on ice, 110 µM complex; details: protein: recombinant; tags: N-terminal His6; chain copies: 2; blunt, self-complementary, 2 copies of one strand
Tdp1(Δ148) [2] = target: T1, Tdp1(Δ148); assay: X-ray crystal structure (3.18 Å); product complex; Cross-linking: 10 mM Tris-HCl pH 7.5, 100 mM KCl, 5 µM each, 15 min room temperature then 15 min on ice, UV 312 nm 30 min on ice. Crystal complex: 50 mM HEPES pH 7.8, 50 mM NaCl, on ice, 110 µM complex; details: protein: recombinant; tags: N-terminal His6; chain copies: 2; blunt, self-complementary, 2 copies of one strand
Tdp1(Δ148) H263A = Tdp1(Δ148) H263A (Homo sapiens, UniProt Q9NUW8 149-608, H263A); assay: UV cross-linking (312 nm), SDS-PAGE and MS; cross-link via F259; Cross-linking: 10 mM Tris-HCl pH 7.5, 100 mM KCl, 5 µM each, 15 min room temperature then 15 min on ice, UV 312 nm 30 min on ice. Crystal complex: 50 mM HEPES pH 7.8, 50 mM NaCl, on ice, 110 µM complex; details: protein: recombinant; tags: N-terminal His6; label: 5' 32P (tracer); 3' biotin-TEG; single strand
Tdp1(Δ148) H263A, sequence (Q9NUW8 149-608 H263A): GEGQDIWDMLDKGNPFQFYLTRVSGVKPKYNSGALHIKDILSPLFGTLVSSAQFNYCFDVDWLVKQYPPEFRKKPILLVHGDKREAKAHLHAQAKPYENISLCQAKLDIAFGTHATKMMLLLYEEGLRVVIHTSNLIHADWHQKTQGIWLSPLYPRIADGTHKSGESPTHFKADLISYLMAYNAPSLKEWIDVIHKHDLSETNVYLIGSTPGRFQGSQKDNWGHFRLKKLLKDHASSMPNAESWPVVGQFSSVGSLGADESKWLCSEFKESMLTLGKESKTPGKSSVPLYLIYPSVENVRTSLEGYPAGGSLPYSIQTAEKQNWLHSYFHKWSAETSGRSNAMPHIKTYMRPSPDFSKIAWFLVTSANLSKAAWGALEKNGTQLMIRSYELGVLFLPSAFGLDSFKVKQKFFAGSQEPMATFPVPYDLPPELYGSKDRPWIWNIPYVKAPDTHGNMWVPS

T1 sequence (Q9NUW8 149-608, stated change not applied): as the sequence (Q9NUW8 149-608 H263A) above, with A115H counted along it

Binder | binding result (Tdp1(Δ148) H263A) | other results
-2G 12-mer duplex (dsDNA) DNA 1: CACTGCGCAGTG DNA 2: CACTGCGCAGTG | – | binding result (Tdp1(Δ148) [1]): binds
-2T 12-mer duplex (dsDNA) DNA 1: CAATGCGCATTG DNA 2: CAATGCGCATTG | – | binding result (Tdp1(Δ148) [2]): binds
GTAGAGGATCTAAAAGACUT (ssDNA, 5-iodouracil (5-iodo-dU) at nt 19) [5IdU(-2) 20-mer] | binds | –
GTAGAGGATCTAAAAGAUTT (ssDNA, 5-iodouracil (5-iodo-dU) at nt 18) [5IdU(-3) 20-mer] | binds | –
